Source: patent US7745587 (DYAX, dated 2010)

Columns and labels:
[1] = target: T1, human MMP-14 (human, UniProt P50281 112-541, limits assumed); assay: enzymatic assay, IgG, 2 nM MMP-14, peptide substrate at 10, 14, 18 µM; highest Ki measured
T1 construct: Soluble MMP-14 used in selection, ELISA (biotinylated) and enzymatic assays; also called hMMP-14; bhMMP-14 (biotinylated human MMP-14)
Description: (§1) K_i studies were performed using an enzymatic assay at substrate [Mca-Pro-Leu-Ala-Cys(Mob)-Trp-Ala-Arg-Dap(Dnp)-NH_2] concentrations of 10 μM, 14 μM and 18 μM. […] The concentration of MMP-14 was 2 nM.

[2] = target: T1, human MMP-14; assay: enzymatic inhibition assay, 2 nM MMP-14, 10 uM substrate Mca-Pro-Leu-Ala-Cys(Mob)-Trp-Ala-Arg-Dap(Dnp)-NH2; rate against [IgG] 0-50 nM
Description: as §1

[3] = target: T1, human MMP-14; assay: cell-based or functional assay
[4] = target: T1, human MMP-14; assay: enzymatic inhibition assay, 2 nM MMP-14, 14 uM substrate Mca-Pro-Leu-Ala-Cys(Mob)-Trp-Ala-Arg-Dap(Dnp)-NH2; rate against [IgG] 0-50 nM
Description: as §1

[5] = target: T1, human MMP-14; assay: enzymatic inhibition assay against 2 pM hMMP-14; rate (dF/min) against [I] 0-100 nM
[6] = target: mouse MMP-14 in arthritic knee joints of C57Bl6 mice (mouse, UniProt P53690 112-582); assay: immunohistochemistry of mouse joints, acute SCW-induced arthritis
[7] = target: T1, human MMP-14; assay: enzymatic inhibition assay against 2 pM hMMP-14; rate (dF/min) against [I] 0-50 nM
[8] = target: T1, human MMP-14; assay: enzymatic inhibition assay, 2 nM MMP-14, 18 uM substrate Mca-Pro-Leu-Ala-Cys(Mob)-Trp-Ala-Arg-Dap(Dnp)-NH2; rate against [IgG] 0-50 nM
Description: as §1

[9] = target: T1, human MMP-14; assay: enzymatic inhibition assay against 2 pM hMMP-14; rate (dF/min) against [I] 0-100 nM; value taken from the line under the panel marked Parental, not from its inset table

B1: M0038-F01 IgG (antibody, V domains shown)
VH: EVQLLESGGGLVQPGGSLRLSCAASGFTFSLYSMNWVRQAPGKGLEWVSSIYSSGGSTLYADSVKGRFTISRDNSKNTLYLQMNSLRAEDTAVYYCARGRAFDIWGQGTMVTVSS
VL: DIQMTQSPSSLSAFVGDKVTITCRASQSVGTYLNWYQQKAGKAPELLIYATSNLRSGVPSRFSGSGSGTDFTLTINTLQPEDFATYYCQQSYSIPRFTFGPGTKVDIK
notes: IgG of the Fab
Q: With B1 as the binder, how does the Ki [1] read?
A: 1.2 nM

Q: What about the Ki [2] of the same binder?
A: 0.6 nM

Q: And the “IC50 of MMP-14 inhibition (MMP-14 at 2 pM), IgG” value [3]?
A: 2 nM

Q: What about the Ki [4] of the same binder?
A: 0.9 nM

Q: What about the IC50 [5] of the same binder?
A: 8.3 nM

Q: Does B1 bind [6]?
A: binds

B2: M0038-F01 germline (antibody, human IgG1, kappa, V domains shown)
VH: EVQLLESGGGLVQPGGSLRLSCAASGFTFSLYSMNWVRQAPGKGLEWVSSIYSSGGSTLYADSVKGRFTISRDNSKNTLYLQMNSLRAEDTAVYYCARGRAFDIWGQGTMVTVSS
VL: DIQMTQSPSSLSASVGDRVTITCRASQSVGTYLNWYQQKPGKAPKLLIYATSNLRSGVPSRFSGSGSGTDFTLTISSLQPEDFATYYCQQSYSIPRFTFGPGTKVDIKR
notes: Full chains; the ranges 20-464 and 20-234 come from claims 16, 18 and 20
Q: How did the IC50 [7] turn out when B2 was run?
A: 5.13 nM

B3: M0043-G02 IgG (antibody, V domains shown)
VH: EVQLLESGGGLVQPGGSLRLSCAASGFTFSWYPMFWVRQAPGKGLEWVSGIYSSGGPTDYADSVKGRFTISRDNSKNTLYLQMNSLRAEDTAVYYCAKDTLGRYYDFWSGYSYGMDVWGQGTTVTVSS
VL: DIQMTQSPGTLSLSPGERATLSCRASQSVSSSYLAWYQQKPGQAPRLLIYGASSRATGIPDRFSGSGSGTDFTLTISRLEPEDFAVYYCQSGVTFGGGTKVEIK
notes: IgG of the Fab
Q: What does the source list for B3?
A: Ki [1]: 1.2 nM; Ki [2]: 0.7 nM; IC50 of MMP-14 inhibition (MMP-14 at 2 pM), IgG [3]: 0.3 nM; Ki [8]: 1.1 nM

B4: M0037-D01 IgG (antibody, V domains shown)
VH: EVQLLESGGGLVQPGGSLRLSCAASGFTFSMYMMIWVRQAPGKGLEWVSSIYPSGGNTMYADSVKGRFTISRDNSKNTLYLQMNSLRAEDTAVYYCATGVLRYFDWDAGSGMDVWGQGTTVTVSS
VL: DIQMTQSPSSLSASVGDRVTITCRASQGIRNDLGWYQQKPGKAPKRLIYVASSLQSGVPSRFSGSGSGTEFTLTISSLQPEDFATYYCLQHNSYPWTFGQGTKVEIK
notes: IgG of the Fab
Q: Which results are given for B4?
A: Ki [1]: 2.9 nM; IC50 of MMP-14 inhibition (MMP-14 at 2 pM), IgG [3]: 1.7 nM; Ki [4]: 1.7 nM; Ki [8]: 2 nM

B5: M0033-H07 IgG (antibody, V domains shown)
VH: EVQLLESGGGLVQPGGSLRLSCAASGFTFSVYGMVWVRQAPGKGLEWVSVISSSGGSTWYADSVKGRFTISRDNSKNTLYLQMNSLRAEDTALYYCARPFSRRYGVFDYWGQGTLVTVSS
VL: DIQMTQSPSSLSASVGDRVTITCRASQGIRNFLAWYQQKPGKVPKLLVFGASALQSGVPSRFSGSGSGTDFTLTISGLQPEDVATYYCQKYNGVPLTFGGGTKVEIK
notes: IgG of the Fab
Q: B5 was tested. Which Ki [1] did it give?
A: 4 nM

Q: What about the Ki [2] of the same binder?
A: 3.3 nM

Q: And the “IC50 of MMP-14 inhibition (MMP-14 at 2 pM), IgG” value [3]?
A: 5.1 nM

Q: And the Ki [4]?
A: 2.7 nM

Q: What about the IC50 [9] of the same binder?
A: 12.2 nM
